From the supplement of paper PMC9112550, “Optimization of the antimicrobial peptide Bac7 by deep mutational scanning” (BMC Biology, 2022)

The sequences below were run on Escherichia coli TOP10 (assay: shrunken log2 fold change of peptide-encoding DNA abundance (4.5 h post-induction vs induction); higher = less antimicrobial activity (less host growth inhibition)). Conditions: time post-induction: 4.5 h; library: site-saturation at positions 5, 18, 19, 20.
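Also: peptides expressed intracellularly from a pBAD plasmid library in pooled LB shake-flask culture, induced with 0.3% L-arabinose, DNA abundance read by NGS, three biological replicates, DESeq2 with apeglm shrinkage.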

In order of rising “shrunken log2 fold change” value:
1. RRIRYRPPRLPRPRPRPIHLPRP  -1.26
2. RRIRYRPPRLPRPRPRPCWYPRP  -1.03
3. RRIRFRPPRLPRPRPRPIVHPRP  -0.581
4. RRIRIRPPRLPRPRPRPCDRPRP  -0.563
5. RRIRCRPPRLPRPRPRPYAWPRP  -0.553
6. RRIRCRPPRLPRPRPRPVVHPRP  -0.55
7. RRIRCRPPRLPRPRPRPNMFPRP  -0.529
8. RRIRIRPPRLPRPRPRPNCEPRP  -0.525
9. RRIRIRPPRLPRPRPRPTMLPRP  -0.487
10. RRIRFRPPRLPRPRPRPLNTPRP  -0.483
11. RRIRYRPPRLPRPRPRPPCEPRP  -0.468
12. RRIRPRPPRLPRPRPRPIIQPRP  -0.402
13. RRIRERPPRLPRPRPRPLMFPRP  -0.32
14. RRIRYRPPRLPRPRPRPAWSPRP  -0.292
15. RRIRLRPPRLPRPRPRPWHLPRP  -0.28
16. RRIRVRPPRLPRPRPRPIYFPRP  -0.23
17. RRIRIRPPRLPRPRPRPCWIPRP  -0.222
18. RRIRMRPPRLPRPRPRPCTMPRP  -0.218
19. RRIRSRPPRLPRPRPRPNYPPRP  -0.195
20. RRIRTRPPRLPRPRPRPQNFPRP  -0.18
21. RRIRYRPPRLPRPRPRPYLPPRP  -0.174
22. RRIRTRPPRLPRPRPRPNLMPRP  -0.164
23. RRIRVRPPRLPRPRPRPPSEPRP  -0.124
24. RRIRLRPPRLPRPRPRPKDAPRP  -0.11
25. RRIRLRPPRLPRPRPRPVIEPRP  -0.0888
26. RRIRFRPPRLPRPRPRPQETPRP  -0.0613
27. RRIRIRPPRLPRPRPRPNELPRP  -0.056
28. RRIRVRPPRLPRPRPRPLSLPRP  -0.0403
29. RRIRKRPPRLPRPRPRPEDVPRP  -0.04
30. RRIRPRPPRLPRPRPRPNCLPRP  -0.0395
31. RRIRARPPRLPRPRPRPVPNPRP  -0.0263
32. RRIRLRPPRLPRPRPRPGDRPRP  -0.0244
33. RRIRERPPRLPRPRPRPIICPRP  -0.0147
34. RRIRHRPPRLPRPRPRPDSEPRP  -0.0112
35. RRIRNRPPRLPRPRPRPAGCPRP  0.00181
36. RRIRARPPRLPRPRPRPNHRPRP  0.00751
37. RRIRARPPRLPRPRPRPWHRPRP  0.00868
38. RRIRTRPPRLPRPRPRPHRAPRP  0.0171
39. RRIRMRPPRLPRPRPRPGWKPRP  0.0184
40. RRIRLRPPRLPRPRPRPICAPRP  0.0264
41. RRIRQRPPRLPRPRPRPRQGPRP  0.0279
42. RRIRLRPPRLPRPRPRPPKFPRP  0.028
43. RRIRRRPPRLPRPRPRPKWAPRP  0.0296
44. RRIRNRPPRLPRPRPRPVTKPRP  0.0334
45. RRIRWRPPRLPRPRPRPFLEPRP  0.0541
46. RRIRPRPPRLPRPRPRPMHQPRP  0.059
47. RRIRPRPPRLPRPRPRPLLEPRP  0.059
48. RRIRIRPPRLPRPRPRPGHWPRP  0.0615
49. RRIRLRPPRLPRPRPRPLMHPRP  0.0668
50. RRIRKRPPRLPRPRPRPCVNPRP  0.0687
51. RRIRDRPPRLPRPRPRPHRMPRP  0.0707
52. RRIRDRPPRLPRPRPRPPKKPRP  0.0806
53. RRIRQRPPRLPRPRPRPPVKPRP  0.0851
54. RRIRPRPPRLPRPRPRPHLGPRP  0.088
55. RRIRPRPPRLPRPRPRPDRQPRP  0.099
56. RRIRRRPPRLPRPRPRPEDHPRP  0.122
57. RRIRLRPPRLPRPRPRPQWAPRP  0.123
58. RRIRFRPPRLPRPRPRPGWLPRP  0.129
59. RRIRRRPPRLPRPRPRPDRDPRP  0.15
60. RRIRWRPPRLPRPRPRPRVSPRP  0.158
61. RRIRARPPRLPRPRPRPMFWPRP  0.19
62. RRIRPRPPRLPRPRPRPMKNPRP  0.212
63. RRIRPRPPRLPRPRPRPSRVPRP  0.269
64. RRIRDRPPRLPRPRPRPVPKPRP  0.32
65. RRIRTRPPRLPRPRPRPSAEPRP  0.363
66. RRIRHRPPRLPRPRPRPRGLPRP  0.369
67. RRIRMRPPRLPRPRPRPKSAPRP  0.389
68. RRIRWRPPRLPRPRPRPTMAPRP  0.449
69. RRIRWRPPRLPRPRPRPEFFPRP  0.54
70. RRIRQRPPRLPRPRPRPPLGPRP  0.547
71. RRIRDRPPRLPRPRPRPIMEPRP  0.594
72. RRIRARPPRLPRPRPRPMRQPRP  0.829
73. RRIRARPPRLPRPRPRPTQDPRP  0.974
74. RRIRARPPRLPRPRPRPEMEPRP  1.3
75. RRIRGRPPRLPRPRPRPEMWPRP  1.76
